From patent US20210206877A1 come the findings set out here.

For the assay, the target named is BACE1 endogenous to primary cortical neurons from E16.5 CD1 mice (mouse) (UniProt P56818). The experiment in a line: cell-based or functional assay.
Sequence of BACE1 endogenous to primary cortical neurons from E16.5 CD1 mice (mouse) (P56818 46-501): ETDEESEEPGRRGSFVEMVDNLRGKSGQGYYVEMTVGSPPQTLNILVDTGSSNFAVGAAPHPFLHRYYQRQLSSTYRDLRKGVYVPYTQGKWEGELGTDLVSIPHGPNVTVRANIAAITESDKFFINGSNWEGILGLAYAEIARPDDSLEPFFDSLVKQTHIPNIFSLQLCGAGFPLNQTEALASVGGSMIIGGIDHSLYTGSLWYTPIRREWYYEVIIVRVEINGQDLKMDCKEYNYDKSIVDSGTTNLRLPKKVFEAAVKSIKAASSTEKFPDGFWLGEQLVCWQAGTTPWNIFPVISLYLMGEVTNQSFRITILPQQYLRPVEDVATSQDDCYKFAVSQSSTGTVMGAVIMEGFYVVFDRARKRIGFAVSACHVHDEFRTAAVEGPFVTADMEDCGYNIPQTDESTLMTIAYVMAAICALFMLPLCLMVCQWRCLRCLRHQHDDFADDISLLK

In the case of antibody YW412.8.31, the IC50, inhibition of Aβx-40 production in primary mouse cortical neuron cultures (sandwich ELISA of supernatants) stood at 2.9 nM and the maximum inhibition of Aβx-40 production in primary mouse cortical neuron cultures is 62%.
